Assay results from paper PMC3318979.

Experiments:
[1] = target: mitochondrial respiratory chain complex I (human) (UniProt Q16795); experiment: native gel or EMSA
[2] = target: mitochondrial respiratory chain complex III dimer (human) (UniProt P22695); experiment: native gel or EMSA
UniProt P22695, sequence (P22695 whole entry, looked up, one chain of several): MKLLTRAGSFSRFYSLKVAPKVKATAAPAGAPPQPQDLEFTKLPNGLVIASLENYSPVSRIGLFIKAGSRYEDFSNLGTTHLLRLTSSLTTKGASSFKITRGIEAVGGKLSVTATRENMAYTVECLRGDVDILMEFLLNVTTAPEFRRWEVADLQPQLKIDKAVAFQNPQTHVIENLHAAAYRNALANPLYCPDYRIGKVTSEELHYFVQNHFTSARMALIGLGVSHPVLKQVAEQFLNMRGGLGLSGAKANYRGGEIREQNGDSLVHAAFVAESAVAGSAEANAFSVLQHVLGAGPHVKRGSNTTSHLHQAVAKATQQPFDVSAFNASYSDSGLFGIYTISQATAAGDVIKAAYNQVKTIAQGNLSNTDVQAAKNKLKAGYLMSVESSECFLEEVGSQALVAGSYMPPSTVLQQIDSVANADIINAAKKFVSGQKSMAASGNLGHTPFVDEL

UniProt Q16795, sequence (Q16795 whole entry, looked up, one chain of several): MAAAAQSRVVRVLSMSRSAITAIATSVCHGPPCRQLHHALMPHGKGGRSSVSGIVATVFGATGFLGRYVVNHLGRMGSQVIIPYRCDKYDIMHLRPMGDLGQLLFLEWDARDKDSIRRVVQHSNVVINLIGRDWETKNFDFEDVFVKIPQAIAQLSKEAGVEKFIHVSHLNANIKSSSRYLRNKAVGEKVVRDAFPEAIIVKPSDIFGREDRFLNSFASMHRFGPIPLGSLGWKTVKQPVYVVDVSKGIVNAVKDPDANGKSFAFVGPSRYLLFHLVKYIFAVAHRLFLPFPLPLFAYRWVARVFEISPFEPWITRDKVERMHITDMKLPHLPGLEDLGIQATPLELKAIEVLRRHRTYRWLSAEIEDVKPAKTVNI

Substance	percent of the subunits' signal in I+III2+IVn supercomplexes [1] [%]	percent of the subunits' signal in supercomplex III2+IV [2] [%]
mitochondrial respiratory chain complex III dimer (from UniProt P22695 15-453; P47985 79-274)	50	
mitochondrial respiratory chain complex IV (from UniProt P00395 1-513; P00403 1-227; P13073 23-169; P20674 42-150; P09669 1-75)		1 to 3
